What was measured:
[1] = biological target: c-Myc bHLH protein (murine) (UniProt P01108); experiment: heterodimer with c-Myc, study of FIG. 9 (method not given)
CREB (unmodified) = biological target: T1, CREB (unmodified); experiment: thermal melting curve, mixture (FIG. 3)
T1 sequence (chain, from a related filing, looked up): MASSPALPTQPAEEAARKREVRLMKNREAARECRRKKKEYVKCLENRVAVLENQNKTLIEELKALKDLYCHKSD

c-Jun (unmodified) = experiment: from thermal melts, Kd at 37 °C (FIG. 4)
[2] = biological target: C/EBP bZIP domain (chimeric GCN4-C/EBP protein) (C/EBP part: 'present in rat liver'; GCN4 part: yeast); experiment: CD thermal melt, equimolar mixture, 150 mM KCl

B1: AcidMax (Max with a polyglutamic acid extension on the dimerization domain) (designed binder)
chain: MASMTGGQQMGRDPDEEEDDEEELEELEDSFHSLRDSVPSLQGEKASRAQILDKATEYIQYMRRKNHTHQQDIDDLKRQNALLEQQVRALEKARSSAQLQT
For B1, which Kd [1] is on record?
The Kd was 0.002 nM.

B2: New4hepCREB (CREB with the new 4heptad acidic extension, asparagine changed to leucine) (designed binder)
chain: MDYKDDDDKHMASMTGGQQMGRDPDLEQRAEELARENEELEKEAEELEQELAELENRVAVLENQNKTLIEELKALKDLYCHKSD
With B2 as the binder, how does the Tm (CREB (unmodified)) read?
The Tm was 69.5 °C.

B3: c-Jun (unmodified) (protein, from a related filing)
chain: PLSPIDMESQERIKAERKRMRNRIAASKCRKRKLERIARLEEKVKTLKAQNSELASTANMLREQVAQLKQKVMNHVNSGCQLMLTQQLQTF
For B3, which Kd (c-Jun (unmodified)) is on record?
The Kd was 20000 nM.

B4: 3heptad-C/EBP (three heptad acidic extension appended onto the C/EBP leucine zipper) (designed binder, not shown: a dimerising Fc or GST)
chain: ASMTGGQQMGRDPGGGLARENEELEKEAEELEQENAELEQKVLELTSDNDRLRKRVEQLSRELDTLRGIFRQLPESSLVKAMGNCA
Which results are given for B4?
Kd [2]: 0.6 nM; Tm [2]: 61 °C; delta G at 25 °C [2]: -12.6 kcal/mol

B5: 0heptadMax (dimerization domain of Max without an acidic extension) (protein)
chain: ASMTGGQQMGRDPDLEELEDSFHSLRDSVPSLQGEKASRAQILDKATEYIQYMRRKNHTHQQDIDDLKRQNALLEQQVRALEKARSSAQLQT
For B5, which Kd [1] is on record?
The Kd was 0.6 nM.

From patent publication US20030027314A1
